The values below come from article PMC8015000, “FYN and ABL Regulate the Interaction Networks of the DCBLD Receptor Family” (Molecular & Cellular Proteomics : MCP, 2020).

This assay concerns the target T1, DCBLD2-FLAG-MYC (full-length human Discoidin, CUB, and LCCL domain-containing protein 2) (human, UniProt Q96PD2 67-775).
T1 construct: DCBLD2, human, full-length cDNA in pCMV6-Entry (OriGene RC224483); Expressed alone or together with ABL-FLAG or FYN; also called ESDN; source: HEK 293, transfected, in lysate; immunoprecipitated (alpha-FLAG or alpha-MYC) for the zebrafish extract experiment and the far-Western; not shown: FLAG, C-terminal, kept; MYC, C-terminal, kept
T1 sequence (looked up): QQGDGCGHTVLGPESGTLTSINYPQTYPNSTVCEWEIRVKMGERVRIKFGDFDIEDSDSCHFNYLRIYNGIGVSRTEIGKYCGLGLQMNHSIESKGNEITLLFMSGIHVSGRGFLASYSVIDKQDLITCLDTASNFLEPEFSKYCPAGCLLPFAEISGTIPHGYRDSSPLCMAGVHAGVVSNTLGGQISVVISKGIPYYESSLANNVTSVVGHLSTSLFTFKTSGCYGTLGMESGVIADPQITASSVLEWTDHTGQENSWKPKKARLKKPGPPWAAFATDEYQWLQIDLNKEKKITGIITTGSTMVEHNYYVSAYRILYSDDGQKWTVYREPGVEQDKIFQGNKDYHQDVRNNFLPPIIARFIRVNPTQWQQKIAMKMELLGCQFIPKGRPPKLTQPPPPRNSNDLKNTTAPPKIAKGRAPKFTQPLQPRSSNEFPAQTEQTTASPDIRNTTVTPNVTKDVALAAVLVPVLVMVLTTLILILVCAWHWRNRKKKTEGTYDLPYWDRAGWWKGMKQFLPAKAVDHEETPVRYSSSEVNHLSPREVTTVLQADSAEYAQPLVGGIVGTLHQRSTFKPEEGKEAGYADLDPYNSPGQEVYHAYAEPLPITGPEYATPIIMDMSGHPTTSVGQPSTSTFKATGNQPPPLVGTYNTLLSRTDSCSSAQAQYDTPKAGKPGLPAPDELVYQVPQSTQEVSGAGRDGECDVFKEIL
Nature of the assay: pull-down; GST-14-3-3 fusions on GSH beads rocked at 4 C with lysates of 293 cells expressing DCBLD2-FLAG-MYC alone or with ABL-FLAG; washed 3x with BCLB; Western blotting (alpha-MYC for DCBLD2). As to conditions: one partner purified.

B1: GST-14-3-3β (natural protein, UniProt P31946 1-246, looked up)
chain: MTMDKSELVQKAKLAEQAERYDDMAAAMKAVTEQGHELSNEERNLLSVAYKNVVGARRSSWRVISSIEQKTERNEKKQQMGKEYREKIEAELQDICNDVLELLDKYLIPNATQPESKVFYLKMKGDYFRYLSEVASGDNKQTTVSNSQQAYQEAFEISKKEMQPTHPIRLGLALNFSVFYYEILNSPEKACSLAKTAFDEAIAELDTLNEESYKDSTLIMQLLRDNLTLWTSENQGDEGDAGEGEN
notes: 14-3-3β, pGEX plasmid, gift of M. Yaffe; also called fusion of GSH S-transferase with 14-3-3β; source: E. coli, purified on glutathione resin (kept on the beads for pull-down; eluted with GSH and dialyzed for far-Western)
For the molecule B1, the binding result was “binds”.

B2: GST-14-3-3ζ (natural protein, UniProt P63104 1-245, looked up)
chain: MDKNELVQKAKLAEQAERYDDMAACMKSVTEQGAELSNEERNLLSVAYKNVVGARRSSWRVVSSIEQKTEGAEKKQQMAREYREKIETELRDICNDVLSLLEKFLIPNASQAESKVFYLKMKGDYYRYLAEVAAGDDKKGIVDQSQQAYQEAFEISKKEMQPTHPIRLGLALNFSVFYYEILNSPEKACSLAKTAFDEAIAELDTLSEESYKDSTLIMQLLRDNLTLWTSDTQGDEAEAGEGGEN
notes: 14-3-3ζ, pGEX plasmid, gift of M. Yaffe; also called fusion of GSH S-transferase with 14-3-3ζ; source: E. coli, purified on glutathione resin (kept on the beads for pull-down; eluted with GSH and dialyzed for far-Western)
For the molecule B2, the binding result is listed as “binds”.

B3: GST-14-3-3ε (natural protein, UniProt P62258 1-255, looked up)
chain: MDDREDLVYQAKLAEQAERYDEMVESMKKVAGMDVELTVEERNLLSVAYKNVIGARRASWRIISSIEQKEENKGGEDKLKMIREYRQMVETELKLICCDILDVLDKHLIPAANTGESKVFYYKMKGDYHRYLAEFATGNDRKEAAENSLVAYKAASDIAMTELPPTHPIRLGLALNFSVFYYEILNSPDRACRLAKAAFDDAIAELDTLSEESYKDSTLIMQLLRDNLTLWTSDMQGDGEEQNKEALQDVEDENQ
notes: 14-3-3ε, pGEX plasmid, gift of M. Yaffe; also called fusion of GSH S-transferase with 14-3-3ε; source: E. coli, purified on glutathione resin (kept on the beads for pull-down; eluted with GSH and dialyzed for far-Western)
B3: the binding result is “binds”.

B4: GST-14-3-3σ (natural protein, UniProt P31947 1-248, looked up)
chain: MERASLIQKAKLAEQAERYEDMAAFMKGAVEKGEELSCEERNLLSVAYKNVVGGQRAAWRVLSSIEQKSNEEGSEEKGPEVREYREKVETELQGVCDTVLGLLDSHLIKEAGDAESRVFYLKMKGDYYRYLAEVATGDDKKRIIDSARSAYQEAMDISKKEMPPTNPIRLGLALNFSVFHYEIANSPEEAISLAKTTFDEAMADLHTLSEDSYKDSTLIMQLLRDNLTLWTADNAGEEGGEAPQEPQS
notes: 14-3-3σ, pGEX plasmid, gift of M. Yaffe; also called fusion of GSH S-transferase with 14-3-3σ; source: E. coli, purified on glutathione resin (kept on the beads for pull-down; eluted with GSH and dialyzed for far-Western)
As to B4, the binding result was “binds”.
